“And” between values parts separate entries of the source, which are not always exact repeats. Equal entries are not always repeated. *1 amine or outer side, *2 acyl side, *3 side chain or, on linkers, in order; H or OH if unused. Where a SMILES comes first, the peptide text is derived from it. Bridges are numbered along the chain shown (N, C = ends). Side-chain parts run from the residue outwards. [ ]: non-standard residue; d: D form. The star is where a group is joined. Ala(piperidin-4-yl) = O=C([C@H](CC1CCN([*:3])CC1)N[*:1])[*:2]; DOTA = O=C(O)CN1CCN(CC(=O)O)CCN(CC(=O)*)CCN(CC(=O)O)CC1; PEG8 = NCCOCCOCCOCCOCCOCCOCCOCCOCCC(=O)O; 2Nal = N[C@@H](Cc1ccc2ccccc2c1)C(=O)O; NMetBuAla = CN[C@@H](CC(C)(C)C)C(=O)O; Gly(4-THP) = N[C@H](C(=O)O)C1CCOCC1; Ile(3-Me) = CCC(C)(C)[C@H](N)C(=O)O; aIle = CC[C@@H](C)[C@H](N)C(=O)O; tBuAla = CC(C)(C)C[C@H](N)C(=O)O; Cha = N[C@@H](CC1CCCCC1)C(=O)O; Chg = N[C@H](C(=O)O)C1CCCCC1; NMeNle = CCCC[C@H](NC)C(=O)O; Tle = CC(C)(C)[C@H](N)C(=O)O; αMeP = C[C@@]1(C(=O)O)CCCN1; plPh = not defined here
T1: DLL3 (Homo sapiens, UniProt Q9NYJ7)
T1 sequence (Q9NYJ7 27-618): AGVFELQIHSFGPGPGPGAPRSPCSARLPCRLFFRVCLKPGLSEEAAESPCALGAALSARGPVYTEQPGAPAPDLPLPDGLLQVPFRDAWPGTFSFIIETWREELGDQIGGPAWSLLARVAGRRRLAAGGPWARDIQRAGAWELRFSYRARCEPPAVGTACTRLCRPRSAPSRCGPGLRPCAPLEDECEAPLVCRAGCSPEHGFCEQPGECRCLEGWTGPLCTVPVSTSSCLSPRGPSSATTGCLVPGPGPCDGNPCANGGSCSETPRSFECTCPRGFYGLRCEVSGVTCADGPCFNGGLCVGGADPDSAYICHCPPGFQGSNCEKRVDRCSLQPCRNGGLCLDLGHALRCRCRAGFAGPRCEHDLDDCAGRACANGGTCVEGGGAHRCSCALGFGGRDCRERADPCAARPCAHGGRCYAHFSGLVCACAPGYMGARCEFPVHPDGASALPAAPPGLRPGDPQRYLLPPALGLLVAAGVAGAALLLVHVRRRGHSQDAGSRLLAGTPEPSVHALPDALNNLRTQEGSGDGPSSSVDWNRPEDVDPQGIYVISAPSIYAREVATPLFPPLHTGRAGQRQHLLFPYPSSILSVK

T2: DLL3 on CT26.DLL3 cells (Homo sapiens (Human), UniProt Q9NYJ7 27-618)
T2 construct: CT26.DLL3 are engineered cells to express DLL3
T2 sequence: T1 sequence (Q9NYJ7 27-618)

T3: DLL3 on SHP-77 cells (human, UniProt Q9NYJ7 27-618)
T3 construct: SHP-77 cells are human-derived, non-engineered SCLC cells
T3 sequence: T1 sequence (Q9NYJ7 27-618)

B1: Cpd No. 249 (peptide)
peptide: Ac-WTICK(DOTA)N[2Nal]HDCWP-NH2
modifications: disulfide 4-10
SMILES: CC[C@H](C)[C@H](NC(=O)[C@@H](NC(=O)[C@H](Cc1c[nH]c2ccccc12)NC(C)=O)[C@@H](C)O)C(=O)N[C@H]1CSSC[C@@H](C(=O)N[C@@H](Cc2c[nH]c3ccccc23)C(=O)N2CCC[C@H]2C(N)=O)NC(=O)[C@H](CC(=O)O)NC(=O)[C@H](Cc2c[nH]cn2)NC(=O)[C@H](Cc2ccc3ccccc3c2)NC(=O)[C@H](CC(N)=O)NC(=O)[C@H](CCCCNC(=O)CN2CCN(CC(=O)O)CCN(CC(=O)O)CCN(CC(=O)O)CC2)NC1=O
notes: also called compound 249
B2: Cpd No. 322 (peptide)
peptide: Ac-WT[aIle]CNN[2Nal]K(DOTA)DCWP-NH2
modifications: disulfide 4-10
SMILES: CC[C@@H](C)[C@H](NC(=O)[C@@H](NC(=O)[C@H](Cc1c[nH]c2ccccc12)NC(C)=O)[C@@H](C)O)C(=O)N[C@H]1CSSC[C@@H](C(=O)N[C@@H](Cc2c[nH]c3ccccc23)C(=O)N2CCC[C@H]2C(N)=O)NC(=O)[C@H](CC(=O)O)NC(=O)[C@H](CCCCNC(=O)CN2CCN(CC(=O)O)CCN(CC(=O)O)CCN(CC(=O)O)CC2)NC(=O)[C@H](Cc2ccc3ccccc3c2)NC(=O)[C@H](CC(N)=O)NC(=O)[C@H](CC(N)=O)NC1=O
B3: Cpd No. 323 (peptide)
peptide: Ac-WT[Cha]CNN[2Nal]K(DOTA)DCWP-NH2
modifications: disulfide 4-10
SMILES: CC(=O)N[C@@H](Cc1c[nH]c2ccccc12)C(=O)N[C@H](C(=O)N[C@@H](CC1CCCCC1)C(=O)N[C@H]1CSSC[C@@H](C(=O)N[C@@H](Cc2c[nH]c3ccccc23)C(=O)N2CCC[C@H]2C(N)=O)NC(=O)[C@H](CC(=O)O)NC(=O)[C@H](CCCCNC(=O)CN2CCN(CC(=O)O)CCN(CC(=O)O)CCN(CC(=O)O)CC2)NC(=O)[C@H](Cc2ccc3ccccc3c2)NC(=O)[C@H](CC(N)=O)NC(=O)[C@H](CC(N)=O)NC1=O)[C@@H](C)O
B4: Cpd No. 317 (peptide)
peptide: Ac-WT[Gly(4-THP)]CNN[2Nal]K(DOTA)DCWP-NH2
modifications: disulfide 4-10
SMILES: CC(=O)N[C@@H](Cc1c[nH]c2ccccc12)C(=O)N[C@H](C(=O)N[C@H](C(=O)N[C@H]1CSSC[C@@H](C(=O)N[C@@H](Cc2c[nH]c3ccccc23)C(=O)N2CCC[C@H]2C(N)=O)NC(=O)[C@H](CC(=O)O)NC(=O)[C@H](CCCCNC(=O)CN2CCN(CC(=O)O)CCN(CC(=O)O)CCN(CC(=O)O)CC2)NC(=O)[C@H](Cc2ccc3ccccc3c2)NC(=O)[C@H](CC(N)=O)NC(=O)[C@H](CC(N)=O)NC1=O)C1CCOCC1)[C@@H](C)O
B5: Cpd No. 314 (peptide)
peptide: Ac-WT[tBuAla]C[Ala(piperidin-4-yl)]N[2Nal]K(DOTA)DCWP-NH2
modifications: disulfide 4-10
SMILES: CC(=O)N[C@@H](Cc1c[nH]c2ccccc12)C(=O)N[C@H](C(=O)N[C@@H](CC(C)(C)C)C(=O)N[C@H]1CSSC[C@@H](C(=O)N[C@@H](Cc2c[nH]c3ccccc23)C(=O)N2CCC[C@H]2C(N)=O)NC(=O)[C@H](CC(=O)O)NC(=O)[C@H](CCCCNC(=O)CN2CCN(CC(=O)O)CCN(CC(=O)O)CCN(CC(=O)O)CC2)NC(=O)[C@H](Cc2ccc3ccccc3c2)NC(=O)[C@H](CC(N)=O)NC(=O)[C@H](CC2CCNCC2)NC1=O)[C@@H](C)O
B6: Cpd No. 417 (peptide)
peptide: Ac-WT[Chg]C[Ala(piperidin-4-yl)]N[2Nal]K(DOTA)DCWP[dK]([PEG8-plPh])-NH2
modifications: bridge 4-10; not fully specified (bridges); reading uncertain; also: bridge 4-10: thioacetal per mods, disulfide

molecular target: DLL3 on CT26.DLL3 cells (Homo sapiens (Human)) (UniProt Q9NYJ7); assay: [177Lu]Lu-labelled peptide on CT26.DLL3 cells, 1 h 37 C, gamma counter; A = %<=25; conditions: not given

Row | % Binding | Molecule
1 | < 25% | Ac-WT[Ile(3-Me)]C[Ala(piperidin-4-yl)]N[2Nal]K(DOTA)DCWP-NH2 (disulfide 4-10) [Cpd No. 302]
2 | < 25% | Ac-WT[Chg]C[Ala(piperidin-4-yl)]N[2Nal]K(DOTA)DCWP-NH2 (disulfide 4-10) [Cpd No. 324]

molecular target: T1, DLL3; assay: SPR binding affinity of cyclic peptides (SEQ ID NOs), SA sensor chip, Biacore S200; conditions: 25° C., 1:1 binding model
Procedure: The binding affinity and binding kinetic parameters at 25° C. were determined using Biacore S200 instrument. Target ligand was immobilized on a SA sensor chip via streptavidin capture. A reference surface was set up for nonspecific binding and refractive index changes. For analysis of the kinetics of interactions, varying concentrations of peptides were injected at a flow rate of 50 μL/minute using running buffer containing 20 mM phosphate buffer with 2.7 mM KCl, 137 mM NaCl and 0.05% Surfactant P20. Sensorgram curves were fitted with 1:1 binding model, and affinity and kinetic parameters were obtained using either Biacore S200 evaluation software 1.1.1 or Biacore Insight evaluation 4.0.

Row | Kd | Molecule
3 | 150 nM | CC[C@H](C)[C@H](NC(=O)[C@@H](NC(=O)[C@H](Cc1c[nH]c2ccccc12)NC(=O)[C@H](CCSC)NC(C)=O)[C@@H](C)O)C(=O)N[C@H]1CSSC[C@@H](C(=O)N[C@@H](Cc2c[nH]c3ccccc23)C(=O)N[C@H](C)C(N)=O)NC(=O)[C@H](CC(=O)O)NC(=O)[C@H](Cc2cnc[nH]2)NC(=O)[C@H](Cc2c[nH]c3ccccc23)NC(=O)[C@H](CC(N)=O)NC(=O)[C@H](CC(N)=O)NC1=O [compound 85] (Ac-MWTICNNWHDCW[dA]-NH2; disulfide 5-11)

molecular target: T2, DLL3 on CT26.DLL3 cells; assay: [177Lu]Lu-labelled peptide on CT26.DLL3 cells, 1 h 37 C, gamma counter; A = %<=25; conditions: not given
Procedure: (§1) Adherent cell studies: The cells were cultured in appropriate culture media (20 mL) in tissue culture treated T150 flasks at 37° C. and 5% C02. Adherent cells were detached (60-70% confluent) using 5 mL Versene at 37° C. for 3 minutes. After confirming the viability using countess and count of detached cells using Trypan blue, the cells were centrifuged at 4° C. for 5 minutes (1,000 rpm). The cell pellet obtained was washed once with PBS and resuspended in 1% PBSA to obtain the desired cell concentration (5-25 million cells/mL).
(§2) Total uptake: Cells were incubated with 300 μL (0.8 μCi) of the incubation buffer (containing radiolabeled peptide [¹⁷⁷Lu]Lu-test peptide) for 1 hour at 37° C. (Table 10). Post incubation, the cells were pelleted and washed 2 times using cold PBS+1% BSA. The supernatant and washes were combined and counted together as “unbound fraction” in a gamma counter. The cells were then resuspended in 300 μL of 1% PBS+1% BSA and counted in the gamma counter as “bound fraction”.

Row | % Binding | Molecule
4 | ≤ 25% | B1
5 | ≤ 25% | B2
6 | ≤ 25% | B3
7 | ≤ 25% | B4
8 | ≤ 25% | Ac-WT[NMeNle]CNN[2Nal]K(DOTA)DCWP-NH2 (disulfide 4-10) [Cpd No. 320]

molecular target: T3, DLL3 on SHP-77 cells; assay: [177Lu]Lu-labelled peptide on SHP-77 cells, 1 h 37 C, gamma counter; B = 25<%<=50; conditions: not given

Row | % Binding | Molecule
9 | > 25% and < 50% | Ac-WT[Ile(3-Me)]C[Ala(piperidin-4-yl)]N[2Nal]K(DOTA)DCWP-NH2 (disulfide 4-10) [Cpd No. 302]
10 | > 25% and < 50% | Ac-WT[Chg]C[Ala(piperidin-4-yl)]N[2Nal]K(DOTA)DCWP-NH2 (disulfide 4-10) [Cpd No. 324]
11 | > 25% and < 50% | B5

molecular target: T3, DLL3 on SHP-77 cells; assay: [177Lu]Lu-labelled peptide on SHP-77 cells, 1 h 37 C, gamma counter; C = %>50; conditions: not given

Row | % Binding | Molecule
12 | > 50% | Ac-WT[NMetBuAla]C[Ala(piperidin-4-yl)]N[2Nal]K(DOTA)DCW[αMeP]-NH2 (bridge 4-10; not fully specified (bridges)) [Cpd No. 236]

molecular target: T3, DLL3 on SHP-77 cells; assay: [177Lu]Lu-labelled peptide on SHP-77 cells, 1 h 37 C, gamma counter; A = %<=25; conditions: not given
Procedure: as §1, §2

Row | % Binding | Molecule
13 | ≤ 25% | B1
14 | ≤ 25% | B2
15 | ≤ 25% | B3
16 | ≤ 25% | B4
17 | ≤ 25% | Ac-WT[NMeNle]CNN[2Nal]K(DOTA)DCWP-NH2 (disulfide 4-10) [Cpd No. 320]

molecular target: DLL3 on CT26.DLL3 cells (Homo sapiens (Human)) (UniProt Q9NYJ7); assay: [177Lu]Lu-labelled peptide on CT26.DLL3 cells, 1 h 37 C, gamma counter; B = 25<%<=50; conditions: not given

Row | % Binding | Molecule
18 | > 25% and < 50% | Ac-WT[Tle]C[Ala(piperidin-4-yl)]N[2Nal]K(DOTA)DCWP-NH2 (disulfide 4-10) [Cpd No. 301]
19 | > 25% and < 50% | B5
20 | > 25% and < 50% | Ac-WT[NMeNle]C[Ala(piperidin-4-yl)]N[2Nal]K(DOTA)DCWP-NH2 (disulfide 4-10) [Cpd No. 300]
21 | > 25% and < 50% | B6
22 | > 25% and < 50% | Ac-WT[tBuAla]C[Ala(piperidin-4-yl)]N[2Nal]K(DOTA)DCWP-NH2 (bridge 4-10; not fully specified (bridges)) [Cpd No. 94]

molecular target: Recombinant human DLL3 aa27-215 protein (human) (UniProt Q9NYJ7); assay: ELISA: anti-DOTA antibody coated on the plate captures the DOTA-containing peptide (titrated 100 nM to 1.69 pM); 2 ug/mL DLL3 aa27-215 (His-tagged) added; detected with anti-His-HRP, OD450; EC50 fitted in GraphPad; conditions: not given

Row | EC50 | Molecule
23 | 2.86 nM | Ac-WT[tBuAla]C[Ala(piperidin-4-yl)]N[2Nal]K(DOTA)DCW[αMeP]-NH2 (bridge 4-10; not fully specified (bridges)) [Cpd No. 437]
24 | 0.341 nM | Ac-WT[NMetBuAla]C[Ala(piperidin-4-yl)]N[2Nal]K(DOTA)DCW[αMeP]-NH2 (bridge 4-10; not fully specified (bridges)) [Cpd No. 236]
25 | 2.19 nM | Ac-WT[tBuAla]C[Ala(piperidin-4-yl)]N[2Nal]K(DOTA)DCWP-NH2 (bridge 4-10; not fully specified (bridges)) [Cpd No. 94]

— patent publication US20250049970A1, “DLL3 TARGETING PEPTIDES AND CONSTRUCTS THEREOF” (MARIANA ONCOLOGY INC., priority 2023, published 2025)
